{
  "source": "paper PMC7323586",
  "about": "(Journal of molecular biology, 2020)",
  "proteins": {"B1": {"name": "Bacillus subtilis xanthine phosphoribosyltransferase (XPRT), hexahistidine tag removed (enzyme, UniProt P42085 1-194, looked up)", "chain": "MEALKRKIEEEGVVLSDQVLKVDSFLNHQIDPLLMQRIGDEFASRFAKDGITKIVTIESSGIAPAVMTGLKLGVPVVFARKHKSLTLTDNLLTASVYSFTKQTESQIAVSGTHLSDQDHVLIIDDFLANGQAAHGLVSIVKQAGASIAGIGIVIEKSFQPGRDELVKLGYRVESLARIQSLEEGKVSFVQEVHS"}},
  "target": "the molecule itself",
  "assay": "SEC",
  "data": [
    {"protein": "B1", "values": [
      {"measurement": "stoichiometry N", "value": 2}
    ]}
  ]
}
